Data as given in paper doi:10.1101/324590 (bioRxiv, 2018).

B6: YPet-RIPK3(387-518) (domain or fragment, human, UniProt Q9Y572 387-518, looked up)
chain: TSSDSMAQPPQTPETSTFRNQMPSPTSTGTPSPGPRGNQGAERQGMNWSCRTPEPNPVTGRPLVNIYNCSGVQVGDNNYLTMQQTTALPTWGLAPSGKGRGLQHPPPVGSQEGPKDPEAWSRPQGWYNHSGK
B7: mCHERRY-RIPK1(497-583) (domain or fragment, human, UniProt Q13546 497-583, looked up)
chain: MPSLHNIPVPETNYLGNTPTMPFSSLPPTDESIKYTIYNSTGIQIGAYNYMEIGGTSSSLLDSTNTNFKEEPAAKYQAIFDNTTSLT
B8: His-Ub-M45(1-90) (domain or fragment, murine cytomegalovirus, UniProt Q06A28 1-90, looked up)
chain: MDRQPKVYSDPDNGFFFLDVPMPDDGQGGQQTATTAAGGAFGVGGGHSVPYVRIMNGVSGIQIGNHNAMSIASCWSPSYTDRRRRSYPKT
B9: mCHERRY-M45(1-90WT) (domain or fragment, murine cytomegalovirus, UniProt Q06A28 1-90, looked up)
chain: MDRQPKVYSDPDNGFFFLDVPMPDDGQGGQQTATTAAGGAFGVGGGHSVPYVRIMNGVSGIQIGNHNAMSIASCWSPSYTDRRRRSYPKT
B12: ECFP-M45(1-90) (domain or fragment, murine cytomegalovirus, UniProt Q06A28 1-90, looked up)
chain: MDRQPKVYSDPDNGFFFLDVPMPDDGQGGQQTATTAAGGAFGVGGGHSVPYVRIMNGVSGIQIGNHNAMSIASCWSPSYTDRRRRSYPKT

Columns and labels:
[1] = target: the molecule itself; experiment: transmission electron microscopy + thioflavin T fluorescence
[2] = target: the molecule itself; experiment: sedimentation of insoluble material + transmission electron microscopy
His-Ub-RIPK1(497-583) = target: T1, His-Ub-RIPK1(497-583) (human, UniProt Q13546 497-583); experiment: fluorescence polarisation
T1 sequence (looked up): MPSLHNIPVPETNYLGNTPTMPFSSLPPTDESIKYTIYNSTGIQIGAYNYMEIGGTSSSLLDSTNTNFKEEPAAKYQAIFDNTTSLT

His-Ub-M45(1-90) = target: B8; experiment: fluorescence polarisation
His-Ub-RIPK3(387-518) = target: T2, His-Ub-RIPK3(387-518) (human, UniProt Q9Y572 387-518); experiment: fluorescence polarisation
T2 sequence (looked up): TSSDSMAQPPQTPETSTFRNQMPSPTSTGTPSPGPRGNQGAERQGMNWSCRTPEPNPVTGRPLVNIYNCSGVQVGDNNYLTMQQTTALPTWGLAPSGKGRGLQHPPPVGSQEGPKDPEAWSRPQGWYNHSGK

mCHERRY-RIPK1(497-583) = target: B7; experiment: single-molecule two-colour fluorescence coincidence spectroscopy
mCHERRY-M45(1-90WT) = target: B9; experiment: as above
mCHERRY-RIPK3(387-518) = target: T3, mCHERRY-RIPK3(387-518) (human, UniProt Q9Y572 387-518); experiment: as above
T3 sequence (looked up): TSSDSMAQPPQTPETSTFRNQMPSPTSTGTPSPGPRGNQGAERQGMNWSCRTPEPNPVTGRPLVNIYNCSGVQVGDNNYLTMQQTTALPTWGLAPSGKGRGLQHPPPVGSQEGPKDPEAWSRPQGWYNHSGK

[3] = target: the molecule itself; experiment: thioflavin T fluorescence kinetics
ECFP-M45(1-90) = target: B12; experiment: confocal fluorescence microscopy of fibrils
YPet-RIPK3(387-518) [4] = target: B6; experiment: single-molecule two-colour fluorescence coincidence spectroscopy
X-ray fibre diffraction = target: the molecule itself; experiment: X-ray fibre diffraction
[5] = target: the molecule itself; experiment: single-molecule two-colour fluorescence coincidence spectroscopy
[6] = target: the molecule itself; experiment: negative-stain transmission electron microscopy
YPet-RIPK3(387-518) [7] = target: B6; experiment: confocal fluorescence microscopy of fibrils
[8] = target: the molecule itself; experiment: confocal fluorescence microscopy of fibrils
SEC = target: the molecule itself; experiment: SEC

VRIMNGVSGIQIGNHNAMS [synthetic peptide encompassing the RHIM of M45]: binds [1].

B1: M45(1-90) after removal of MBP with thrombin (domain or fragment, murine cytomegalovirus, UniProt Q06A28 1-90, looked up)
chain: MDRQPKVYSDPDNGFFFLDVPMPDDGQGGQQTATTAAGGAFGVGGGHSVPYVRIMNGVSGIQIGNHNAMSIASCWSPSYTDRRRRSYPKT
B1: binds [2].

B2: RIPK1(497-583) after removal of MBP with thrombin (domain or fragment, human, UniProt Q13546 497-583, looked up)
chain: MPSLHNIPVPETNYLGNTPTMPFSSLPPTDESIKYTIYNSTGIQIGAYNYMEIGGTSSSLLDSTNTNFKEEPAAKYQAIFDNTTSLT
B2: binds [2].

B3: RIPK3(387-518) after removal of MBP with thrombin (domain or fragment, human, UniProt Q9Y572 387-518, looked up)
chain: TSSDSMAQPPQTPETSTFRNQMPSPTSTGTPSPGPRGNQGAERQGMNWSCRTPEPNPVTGRPLVNIYNCSGVQVGDNNYLTMQQTTALPTWGLAPSGKGRGLQHPPPVGSQEGPKDPEAWSRPQGWYNHSGK
B3: binds [2].

B4: Alexa488-labelled RIPK1(497-583) (domain or fragment, human, UniProt Q13546 497-583, looked up)
chain: MPSLHNIPVPETNYLGNTPTMPFSSLPPTDESIKYTIYNSTGIQIGAYNYMEIGGTSSSLLDSTNTNFKEEPAAKYQAIFDNTTSLT
modifications: Alexa Fluor 488, covalent label, site not stated (degree of labelling 5%)
B4: binds (His-Ub-RIPK1(497-583)); binds (His-Ub-M45(1-90)); binds (His-Ub-RIPK3(387-518)).

B5: YPet-RIPK1(497-583) (domain or fragment, human, UniProt Q13546 497-583, looked up)
chain: MPSLHNIPVPETNYLGNTPTMPFSSLPPTDESIKYTIYNSTGIQIGAYNYMEIGGTSSSLLDSTNTNFKEEPAAKYQAIFDNTTSLT
B5: binds (mCHERRY-RIPK1(497-583)); binds (mCHERRY-M45(1-90WT)).

B6: binds (mCHERRY-RIPK3(387-518)).

B7: binds [3]; binds (ECFP-M45(1-90)); binds (YPet-RIPK3(387-518) [4]).

B8: binds (X-ray fibre diffraction).

B9: binds (YPet-RIPK3(387-518) [4]); binds [5].

B10: M45(1-90) after removal of His6-ubiquitin (domain or fragment, murine cytomegalovirus, UniProt Q06A28 1-90, looked up)
chain: MDRQPKVYSDPDNGFFFLDVPMPDDGQGGQQTATTAAGGAFGVGGGHSVPYVRIMNGVSGIQIGNHNAMSIASCWSPSYTDRRRRSYPKT
B10: binds [6].

B11: RIPK1(497-583) after removal of His6-ubiquitin (domain or fragment, human, UniProt Q13546 497-583, looked up)
chain: MPSLHNIPVPETNYLGNTPTMPFSSLPPTDESIKYTIYNSTGIQIGAYNYMEIGGTSSSLLDSTNTNFKEEPAAKYQAIFDNTTSLT
B11: binds [6].

B12: binds (YPet-RIPK3(387-518) [7]).

B13: YPet-M45 (domain or fragment, murine cytomegalovirus, UniProt Q06A28 1-90, looked up)
chain: MDRQPKVYSDPDNGFFFLDVPMPDDGQGGQQTATTAAGGAFGVGGGHSVPYVRIMNGVSGIQIGNHNAMSIASCWSPSYTDRRRRSYPKT
B13: binds [8].

B14: MBP-M45(1-90) (domain or fragment, murine cytomegalovirus, UniProt Q06A28 1-90, looked up)
chain: MDRQPKVYSDPDNGFFFLDVPMPDDGQGGQQTATTAAGGAFGVGGGHSVPYVRIMNGVSGIQIGNHNAMSIASCWSPSYTDRRRRSYPKT
B14: binds (SEC).

B15: MBP-RIPK1(497-583) (domain or fragment, human, UniProt Q13546 497-583, looked up)
chain: MPSLHNIPVPETNYLGNTPTMPFSSLPPTDESIKYTIYNSTGIQIGAYNYMEIGGTSSSLLDSTNTNFKEEPAAKYQAIFDNTTSLT
B15: binds (SEC).
